The values that follow come from patent US11633477B2, “Treatment of cornea using laminin” (KYOTO PREFECTURAL PUBLIC UNIVERSITY CORPORATION, priority 2014, dated 2023).

The test system of assay [1] is human corneal endothelial cells. Nature of the assay: Adhesion of corneal endothelial cells (CellTiter-Glo, 24 hours after seeding). In kind it is cell-based. As to conditions: laminin 511-E8 fragments 2.1 nM added on seeding; relative to fragment free cells; HCEC. Here is the method: The medium was completely removed from a culture dish culturing human corneal endothelial cells. The cells were washed twice with PBS (−). After washing, phosphate buffer was added, and the mixture was incubated for 5 minute at 37° C. (5% CO2). Subsequently, PBS (−) was removed and TrypLE™ Select (10×) (Life Technologies, A12177-01) was added. The mixture was incubated for 10 minutes at 37° C. (5% CO2). Opti-MEMI (Life Technologies, 31985-070) was then added to collect the cells. After collecting the cells, the cells were centrifuged for 3 minutes at 1200 rpm to make a cell suspension with Opti-MEM I. At this time, a laminin 511-E8 fragment free group was prepared as a control, as well as a group supplemented with laminin 511-E8 fragments so that the final concentration was 2.1 nM. At the same time, mouse IgG and integrin neutralizing antibody were added to the laminin 511-E8 fragment added group to adjust the final concentration to 2 μg/ml. After the adjustment, cells were seeded on a 96-well plate at 5000 cells/well and were incubated for 24 hours at 37° C. (5% CO2). After 24 hours of seeding, the medium was completely removed and the cells were washed twice with PBS (−). After washing, a medium and CellTiter-Glo Luminescent Cell Viability Assay (Promega Corporation, Madison, Wis.) were added at a ratio of 1:1. […]

Assay [2] relates to rabbit bullous keratopathy model. The assay can be described thus: Adhesion of injected cells to substrate after 24 hours in rabbit bullous keratopathy model, laminin with ROCK inhibitor. In kind it is in vivo. The settings on record: average; 24 hours after injection of cultured RCEC into anterior chamber; Y-27632 100 μM in both groups, with or without laminin 511-E8 fragments 2.1 nM. Here is the method: A rabbit corneal endothelium was mechanically detached to make a bullous keratopathy model. Adhesion of injected cells to a substrate after 24 hours was compared between individuals injected with cultured rabbit corneal endothelial cells together with a ROCK inhibitor Y-27632 (+) (100 μM) into the anterior chamber and individuals injected with cells together with laminin 511-E8 fragments (2.1 nM) and Y-27632 (+) (100 μM). The rabbit was euthanized after 24 hours. Corneal tissue was extracted and subjected to phalloidin staining to evaluate the morphology and cell count of adhered cells.

Assay [3] deals with monkey bullous keratopathy model. Nature of the assay: Cultured corneal endothelium transplantation in monkey bullous keratopathy model with laminin 511-E8 fragments. In kind it is in vivo. The settings on record: cynomolgus monkey. How it is done: A cynomolgus monkey corneal endothelium was mechanically detached using a 20 gauge silicone needle (Soft Tapered Needle; Inami & Co., Ltd., Tokyo, Japan) to make a bullous keratopathy model. In FIG. 9, […] cultured monkey corneal endothelial cells were injected with DMEM containing laminin 511-E8 fragments adjusted to a concentration of 2.1 nM into the anterior chamber of the bullous keratopathy model, which was maintained in a face-down posture for three hours. In FIG. 10, the Descemet's membrane was detached in a produced bullous keratopathy model and, similarly, 5.0×10^5 cultured monkey corneal endothelial cells were injected with DMEM containing laminin 511-E8 fragments adjusted to a concentration of 2.1 nM into the anterior chamber of the bullous keratopathy model, which was maintained in a face-down posture for three hours.
The corneal thickness was measured with an ultrasound pachymeter (SP-2000; Tomey, Nagoya, Japan). When unmeasurable, 1200 μm, which is the measurable upper limit value, was used.

Assay [4] deals with rabbit bullous keratopathy model. Nature of the assay: Cultured corneal endothelium transplantation in rabbit bullous keratopathy model with or without Descemet's membrane detachment, laminin with ROCK inhibitor (4 groups). In kind it is in vivo. As to conditions: 14 days after transplantation, laminin 511-E8 fragment (2.1 nM) added group, with Y-27632 100 μM. How it is done:
Tests were conducted with 4 groups of 4 rabbits, i.e., group injected with cultured corneal endothelial cells together with Y-27632 (+) (100 μM) after detaching corneal endothelial cells without detaching the Descemet's membrane, group injected with cells together with laminin 511-E8 fragments (2.1 nM) and Y-27632 (+) (100 μM) after detaching corneal endothelial cells without detaching the Descemet's membrane, group in which a bullous keratopathy model with detached Descemet's membrane was injected with cells together with Y-27632 (100 μM), and group in which a bullous keratopathy model with detached Descemet's membrane was injected with cells together with laminin 511-E8 fragments (2.1 nM) and Y-27632 (+) (100 μM).
The corneal thickness was measured with an ultrasound pachymeter (SP-2000; Tomey, Nagoya, Japan). When unmeasurable, 1200 μm, which is the measurable upper limit value, was used. Further, the ocular pressure was measured with a Tonovet (M. E. Technica, Tokyo).
The histological examination shown in FIG. 8 was conducted in the same manner as in Example 1.

Assay [5] has as its system p-Paxillin. Nature of the assay: Western blot of cell adhesion associated protein p-Paxillin in corneal endothelial cells. The settings on record: HCEC; laminin 511-E8 fragments 2.1 nM; three hours after seeding. In kind it is cell-based, human. How it is done: The medium was completely removed from a culture dish culturing human corneal endothelial cells. The cells were washed twice with PBS (−). After washing, phosphate buffer was added, and the mixture was incubated for 5 minute at 37° C. (5% CO2). Subsequently, PBS (−) was removed and TrypLE™ Select (10×) (Life Technologies, A12177-01) was added. The mixture was incubated for 10 minutes at 37° C. (5% CO2). Opti-MEMI (Life Technologies, 31985-070) was then added to collect the cells. After collecting the cells, the cells were centrifuged for 3 minutes at 1200 rpm to make a cell suspension with Opti-MEM I. At this time, a laminin 511-E8 fragment free group was prepared as a control, as well as a group supplemented with laminin 511-E8 fragments so that the final concentration was 2.1 nM. At the same time, mouse IgG and integrin neutralizing antibody were added to the laminin 511-E8 fragment added group to adjust the final concentration to 2 μg/ml. After adjustment, cells were seeded on a 12-well plate at 1×10^5 cells/well and proteins were collected after three hours of seeding. Western blot was used to detect Phospho-FAK (Cell Signaling TECHNOLOGY, 8556S), FAK (Cell Signaling TECHNOLOGY, 32855), and p-Paxillin (Cell Signaling TECHNOLOGY, 2541S). The dilution factor for each antibody was 1:1000. The densitometry was quantified using Image J.

B1: laminin 511-E8 fragment: E8 fragment of human laminin α5β1γ1 (Nippi. Inc., 382-02413) (protein)
chain 1: AAEDAAGQALQQADHTWATVVRQGLVDRAQQLLANSTALEEAMLQEQQRLGLVWAALQGARTQLRDVRAKKDQLEAHIQAAQAMLAMDTDETSKKIAHAKAVAAEAQDTATRVQSQLQAMQENVERWQGQYEGLRGQDLGQAVLDAGHSVSTLEKTLPQLLAKLSILENRGVHNASLALSASIGRVRELIAQARGAASKVKVPMKFNGRSGVQLRTPRDLADLAAYTALKFYLQGPEPEPGQGTEDRFVMYMGSRQATGDYMGVSLRDKKVHWVYQLGEAGPAVLSIDEDIGEQFAAVSLDRTLQFGHMSVTVERQMIQETKGDTVAPGAEGLLNLRPDDFVFYVGGYPSTFTPPPLLRFPGYRGCIEMDTLNEEVVSLYNFERTFQLDTAVDRPCARSKSTGDPWLTDGSYLDGTGFARISFDSQISTTKRFEQELRLVSYSGVLFFLKQQSQFLCLAVQEGSLVLLYDFGAGLKKAVPLQPPPPLTSASKAIQVFLLGGSRKRVLVRVERATVYSVEQDNDLELADAYYLGGVPPDQLPPSLRRLFPTGGSVRGCVKGIKALGKYVDLKRLNTTGVSAGCTADLLVGRAMTFHGHGFLRLALSNVAPLTGNVYSGFGFHSAQDSALLYYRASPDGLCQVSLQQGRVSLQLLRTEVKTQAGFADGAPHYVAFYSNATGVWLYVDDQLQQMKPHRGPPPELQPQPEGPPRLLLGGLPESGTIYNFSGCISNVFVQRLLGPQRVFDLQQNLGSVNVSTGCAPALQAQTPGLGPRGLQATARKASRRSRQPARHPA
chain 2: LQHSAADIARAEMLLEEAKRASKSATDVKVTADMVKEALEEAEKAQVAAEKAIKQADEDIQGTQNLLTSIESETAASEETLFNASQRISELERNVEELKRKAAQNSGEAEYIEKVVYTVKQSAEDVKKTLDGELDEKYKKVENLIAKKTEESADARRKAEMLQNEAKTLLAQANSKLQLLKDLERKYEDNQRYLEDKAQELARLEGEVRSLLKDISQKVAVYSTCL
chain 3: EANDILNNLKDFDRRVNDNKTAAEEALRKIPAINQTITEANEKTREAQQALGSAAADATEAKNKAHEAERIASAVQKNATSTKAEAERTFAEVTDLDNEVNNMLKQLQEAEKELKRKQDDADQDMMMAGMASQAAQEAEINARKAKNSVTSLLSIINDLLEQLGQLDTVDLNKLNEIEGTLNKAKDEMKVSDLDRKVSDLENEAKKQEAAIMDYNRDIEEIMKDIRNLEDIRKTLPSGCFNTPSIEKP
Turning to B1, the “number of adhering cells after 24 hours” value in assay [1] was 137.3±2.8%. For the same molecule, the adhering cell density in assay [2] came out at 1662.8 cells/mm^2. For the same molecule, the “cornea appearance (anterior ocular segment pictures)” value in assay [3] (Descemet's membrane detached, 5.0x10^5 MCEC with laminin 511-E8 2.1 nM, no coating) is “not transparent or healed”. For the same molecule, the figures for the “corneal thickness becoming thin” value in assay [3] (Descemet's membrane detachment group) and in assay [3] (without Descemet's membrane detachment) were “did not become thin” and “it did”, respectively. The “healing of bullous keratopathy (anterior ocular segment pictures)” value in assay [3] (no Descemet's membrane detachment, 5.0x10^5 MCEC with laminin 511-E8 2.1 nM, up to Day 14) is given as “heal bullous keratopathy”. Besides, the “cell morphology by phalloidin staining” value in assay [4] is reported as “normal monolayer polygonal morphology”. The p-Paxillin entry in assay [5] is “promoted”.
